A word on the Km: it is the substrate concentration at which the rate is half of its maximum.

Values joined by “and” are separate entries in the source; they are usually repeats but may differ in a detail not shown here. Equal entries are not always repeated.

These results are taken from publication PMC12865225 (Clinical and Translational Science, 2026).

The target in one data set is T1, OATP1B3 (Homo sapiens, UniProt Q9NPD5).
T1 construct: expressed in transfected cells; host or cells: HEK293 (recombinant baculovirus-mediated transduction)
T1 sequence (Q9NPD5 1-702): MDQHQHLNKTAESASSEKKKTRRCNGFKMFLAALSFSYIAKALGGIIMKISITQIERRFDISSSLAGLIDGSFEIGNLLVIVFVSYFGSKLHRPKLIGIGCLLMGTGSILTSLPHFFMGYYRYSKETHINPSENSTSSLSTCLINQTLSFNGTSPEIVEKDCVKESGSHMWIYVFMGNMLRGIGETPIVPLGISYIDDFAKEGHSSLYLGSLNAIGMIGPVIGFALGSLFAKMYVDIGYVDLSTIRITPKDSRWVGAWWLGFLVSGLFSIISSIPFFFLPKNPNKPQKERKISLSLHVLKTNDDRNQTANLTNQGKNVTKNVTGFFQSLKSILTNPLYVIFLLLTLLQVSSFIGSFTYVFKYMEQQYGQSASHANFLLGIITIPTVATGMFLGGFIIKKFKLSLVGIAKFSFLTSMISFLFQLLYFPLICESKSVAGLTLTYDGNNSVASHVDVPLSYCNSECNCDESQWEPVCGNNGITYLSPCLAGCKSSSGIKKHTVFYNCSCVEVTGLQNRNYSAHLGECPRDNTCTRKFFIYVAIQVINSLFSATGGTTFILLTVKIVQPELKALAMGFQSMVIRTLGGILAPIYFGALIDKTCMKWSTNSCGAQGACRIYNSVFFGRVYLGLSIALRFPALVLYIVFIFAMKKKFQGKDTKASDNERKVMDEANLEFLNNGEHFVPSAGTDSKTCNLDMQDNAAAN
Also on record: method as in PMID 23571415. The conditions noted are these: 10 μM in vitro; cited from earlier work.

The target in a further data set is T2, OATP1B1 (Homo sapiens, UniProt Q9Y6L6).
T2 construct: expressed in transfected cells; host or cells: HEK293 (recombinant baculovirus-mediated transduction)
T2 sequence (Q9Y6L6 1-691): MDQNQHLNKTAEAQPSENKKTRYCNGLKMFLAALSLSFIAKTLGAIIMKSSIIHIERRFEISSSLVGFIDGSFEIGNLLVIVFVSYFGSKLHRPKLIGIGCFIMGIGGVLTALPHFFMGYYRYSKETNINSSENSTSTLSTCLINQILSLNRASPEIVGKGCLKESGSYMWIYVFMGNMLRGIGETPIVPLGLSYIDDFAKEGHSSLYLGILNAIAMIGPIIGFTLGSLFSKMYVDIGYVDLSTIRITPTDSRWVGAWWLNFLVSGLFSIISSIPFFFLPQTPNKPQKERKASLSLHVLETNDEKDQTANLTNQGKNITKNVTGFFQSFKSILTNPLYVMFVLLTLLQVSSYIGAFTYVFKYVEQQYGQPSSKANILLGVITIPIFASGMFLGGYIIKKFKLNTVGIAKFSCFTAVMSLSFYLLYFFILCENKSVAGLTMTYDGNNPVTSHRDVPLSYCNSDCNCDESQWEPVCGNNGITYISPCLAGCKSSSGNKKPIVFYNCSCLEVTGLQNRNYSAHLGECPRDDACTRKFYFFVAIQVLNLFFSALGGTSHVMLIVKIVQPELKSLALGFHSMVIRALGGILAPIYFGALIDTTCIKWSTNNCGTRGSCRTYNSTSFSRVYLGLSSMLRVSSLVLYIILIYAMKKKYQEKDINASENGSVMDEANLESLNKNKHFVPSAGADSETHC
More on the design: method as in PMID 23571415. The following applies: 10 μM in vitro; cited from earlier work.

Substrate in data set [1]: Cc1onc(-c2c(Cl)cccc2Cl)c1C(=O)N[C@@H]1C(=O)N2[C@@H]1SC(C)(C)[C@@H]2C(=O)O
Description: cells, lysate or membranes. The conditions noted are these: other: uptake, 2 min; pH 7.4; 37.0 °C.

Substrate in data set [2]: Cc1onc(-c2c(F)cccc2Cl)c1C(=O)N[C@@H]1C(=O)N2[C@@H]1SC(C)(C)[C@@H]2C(=O)O
Kind of data set: cells, lysate or membranes. The conditions noted are these: other: uptake, 2 min; pH 7.4; 37.0 °C.

Turning to `Cc1onc(-c2ccccc2Cl)c1C(=O)N[C@@H]1C(=O)N2[C@@H]1SC(C)(C)[C@@H]2C(=O)O` [cloxacillin], the “inhibition of OATP1B3 transport” value at OATP1B3 is on record as “around 50%”. Also, the “inhibition of OATP1B1 transport” value on OATP1B1 is reported as “around 50%”.

B1: OATP1B1 (Homo sapiens) (protein)
chain: MDQNQHLNKTAEAQPSENKKTRYCNGLKMFLAALSLSFIAKTLGAIIMKSSIIHIERRFEISSSLVGFIDGSFEIGNLLVIVFVSYFGSKLHRPKLIGIGCFIMGIGGVLTALPHFFMGYYRYSKETNINSSENSTSTLSTCLINQILSLNRASPEIVGKGCLKESGSYMWIYVFMGNMLRGIGETPIVPLGLSYIDDFAKEGHSSLYLGILNAIAMIGPIIGFTLGSLFSKMYVDIGYVDLSTIRITPTDSRWVGAWWLNFLVSGLFSIISSIPFFFLPQTPNKPQKERKASLSLHVLETNDEKDQTANLTNQGKNITKNVTGFFQSFKSILTNPLYVMFVLLTLLQVSSYIGAFTYVFKYVEQQYGQPSSKANILLGVITIPIFASGMFLGGYIIKKFKLNTVGIAKFSCFTAVMSLSFYLLYFFILCENKSVAGLTMTYDGNNPVTSHRDVPLSYCNSDCNCDESQWEPVCGNNGITYISPCLAGCKSSSGNKKPIVFYNCSCLEVTGLQNRNYSAHLGECPRDDACTRKFYFFVAIQVLNLFFSALGGTSHVMLIVKIVQPELKSLALGFHSMVIRALGGILAPIYFGALIDTTCIKWSTNNCGTRGSCRTYNSTSFSRVYLGLSSMLRVSSLVLYIILIYAMKKKYQEKDINASENGSVMDEANLESLNKNKHFVPSAGADSETHC
On to B1, for which the Michaelis-Menten constant (Km) is 3.22 µM and 3 µM in data set [1]; 10.4 µM in data set [2].

B2: OATP2B1 (Homo sapiens) (protein)
chain: MGPRIGPAGEVPQVPDKETKATMGTENTPGGKASPDPQDVRPSVFHNIKLFVLCHSLLQLAQLMISGYLKSSISTVEKRFGLSSQTSGLLASFNEVGNTALIVFVSYFGSRVHRPRMIGYGAILVALAGLLMTLPHFISEPYRYDNTSPEDMPQDFKASLCLPTTSAPASAPSNGNCSSYTETQHLSVVGIMFVAQTLLGVGGVPIQPFGISYIDDFAHNSNSPLYLGILFAVTMMGPGLAFGLGSLMLRLYVDINQMPEGGISLTIKDPRWVGAWWLGFLIAAGAVALAAIPYFFFPKEMPKEKRELQFRRKVLAVTDSPARKGKDSPSKQSPGESTKKQDGLVQIAPNLTVIQFIKVFPRVLLQTLRHPIFLLVVLSQVCLSSMAAGMATFLPKFLERQFSITASYANLLIGCLSFPSVIVGIVVGGVLVKRLHLGPVGCGALCLLGMLLCLFFSLPLFFIGCSSHQIAGITHQTSAHPGLELSPSCMEACSCPLDGFNPVCDPSTRVEYITPCHAGCSSWVVQDALDNSQVFYTNCSCVVEGNPVLAGSCDSTCSHLVVPFLLLVSLGSALACLTHTPSFMLILRGVKKEDKTLAVGIQFMFLRILAWMPSPVIHGSAIDTTCVHWALSCGRRAVCRYYNNDLLRNRFIGLQFFFKTGSVICFALVLAVLRQQDKEARTKESRSSPAVEQQLLVSGPGKKPEDSRV
For B2, the values for the Km in data set [1] and in data set [2] were 34.7 µM and 41.6 µM, respectively.

B3: OAT4 (Homo sapiens) (protein)
chain: MAFSKLLEQAGGVGLFQTLQVLTFILPCLMIPSQMLLENFSAAIPGHRCWTHMLDNGSAVSTNMTPKALLTISIPPGPNQGPHQCRRFRQPQWQLLDPNATATSWSEADTEPCVDGWVYDRSVFTSTIVAKWDLVCSSQGLKPLSQSIFMSGILVGSFIWGLLSYRFGRKPMLSWCCLQLAVAGTSTIFAPTFVIYCGLRFVAAFGMAGIFLSSLTLMVEWTTTSRRAVTMTVVGCAFSAGQAALGGLAFALRDWRTLQLAASVPFFAISLISWWLPESARWLIIKGKPDQALQELRKVARINGHKEAKNLTIEVLMSSVKEEVASAKEPRSVLDLFCVPVLRWRSCAMLVVNFSLLISYYGLVFDLQSLGRDIFLLQALFGAVDFLGRATTALLLSFLGRRTIQAGSQAMAGLAILANMLVPQDLQTLRVVFAVLGKGCFGISLTCLTIYKAELFPTPVRMTADGILHTVGRLGAMMGPLILMSRQALPLLPPLLYGVISIASSLVVLFFLPETQGLPLPDTIQDLESQKSTAAQGNRQEAVTVESTSL
Regarding B3, the Km in data set [1] is 32.9 µM; in data set [2], 52.5 µM.

B4: OAT3 (Homo sapiens) (protein)
chain: MTFSEILDRVGSMGHFQFLHVAILGLPILNMANHNLLQIFTAATPVHHCRPPHNASTGPWVLPMGPNGKPERCLRFVHPPNASLPNDTQRAMEPCLDGWVYNSTKDSIVTEWDLVCNSNKLKEMAQSIFMAGILIGGLVLGDLSDRFGRRPILTCSYLLLAASGSGAAFSPTFPIYMVFRFLCGFGISGITLSTVILNVEWVPTRMRAIMSTALGYCYTFGQFILPGLAYAIPQWRWLQLTVSIPFFVFFLSSWWTPESIRWLVLSGKSSKALKILRRVAVFNGKKEEGERLSLEELKLNLQKEISLAKAKYTASDLFRIPMLRRMTFCLSLAWFATGFAYYSLAMGVEEFGVNLYILQIIFGGVDVPAKFITILSLSYLGRHTTQAAALLLAGGAILALTFVPLDLQTVRTVLAVFGKGCLSSSFSCLFLYTSELYPTVIRQTGMGVSNLWTRVGSMVSPLVKITGEVQPFIPNIIYGITALLGGSAALFLPETLNQPLPETIEDLENWSLRAKKPKQEPEVEKASQRIPLQPHGPGLGSS
As to B4, the Km is reported as 22.4 µM in data set [1] and 27.0 µM in data set [2].
